One block for each molecule: values may come before it. Square brackets hold non-standard residues; d marks the D form. Side chains are listed from the residue outwards. Ends that are not written are not given here. * marks the point of attachment. Acetyl(2-(4-imidazolyl)) = O=C(Cc1c[nH]cn1)*
Assays:
[1] = Comparison of pharmacokinetics between long-acting conjugate of GLP-2 derivative and Teduglutide in SD rat (Example 6); settings: serum, sc, 2.5 mg/kg
Protocol: (§1) 8-week-old normal rates were divided into a group administering Teduglutide (2.5 mg/kg) and a group administering the long-acting conjugate of CA GLP-2 RK (3.4K PEG) derivative (0.705 mg/kg). The test materials were subcutaneously injected once into the normal rats in each group (3 rats/group). Thereafter, whole blood was obtained by collecting blood samples from the coccygeal vein at 0.25, 0.5, 1, 1.5, 2, 3, 4, 6, 8, and 24 hours for the group administering Teduglutide; and at 4, 8, 24, 48, 72, 96, 120, 144, 168, 192, 216, 240, 264, 288, 312, and 336 hours for the group administering the long-acting conjugate of CA GLP-2 RK derivative. The whole blood was placed in a 1.5 mL microtube, centrifuged at room temperature at 5,000 rpm for 10 minutes, and then sera were separated and stored at −20° C. Concentrations of the stored sera from each group were quantified using an ELISA analysis method. For Teduglutide, a GLP-2 ELISA Kit (Alpco, #48-GP2HU-E01.1) was used. For the long-acting conjugate of CA GLP-2 RK derivative, a biotin-labeled GLP-2 polyclonal antibody (Phoenix Pharmaceuticals, #B-028-14) was bound to a plate coated with Streptavidin (Roche, #11645692001), and then reacted with the serum for 1 hour. After washing, anti-human IgG4-HPR (Alpha Diagnosis, #10124) was added thereto and allowed to react at room temperature for 1 hour. Thereafter, the resultants were subjected to a color reaction using a TMB reagent, and the absorbance was measured at a wavelength of 450 nm. Pharmacokinetic parameters thereof were calculated using the serum concentrations.

in vivo = settings: SD, rat, sc, 2.5 mg/kg
Protocol: as §1

human GLP-2 receptor = biological target: T1, human GLP-2 receptor (Homo sapiens, UniProt O95838); assay: In vitro activity: cAMP accumulation (LANCE cAMP kit) in CHO-K1 cells expressing human GLP-2 receptor; format: cell-based; settings: for In vitro activity compared to human GLP-2 (%) (relative titer), GLP-2 derivative: GLP-2 derivative / Teduglutide
T1 construct: host or cells: CHO-K1
T1 sequence (O95838 1-553): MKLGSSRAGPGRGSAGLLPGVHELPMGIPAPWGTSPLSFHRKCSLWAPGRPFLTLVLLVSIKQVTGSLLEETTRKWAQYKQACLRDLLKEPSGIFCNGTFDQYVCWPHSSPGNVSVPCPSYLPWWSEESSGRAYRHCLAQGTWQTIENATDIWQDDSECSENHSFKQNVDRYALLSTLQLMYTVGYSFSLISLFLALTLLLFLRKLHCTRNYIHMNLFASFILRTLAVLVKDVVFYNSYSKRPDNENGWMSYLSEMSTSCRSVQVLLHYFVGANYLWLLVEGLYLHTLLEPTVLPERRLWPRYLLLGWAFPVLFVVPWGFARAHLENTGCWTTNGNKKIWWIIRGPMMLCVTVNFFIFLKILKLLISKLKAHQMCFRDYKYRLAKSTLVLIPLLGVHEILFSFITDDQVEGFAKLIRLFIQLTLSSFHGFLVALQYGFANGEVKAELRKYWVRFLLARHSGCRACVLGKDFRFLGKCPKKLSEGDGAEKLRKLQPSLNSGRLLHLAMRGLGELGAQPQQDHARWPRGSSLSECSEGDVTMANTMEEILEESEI
Source text: In order to measure the activities of the GLP-2 derivatives and the long-acting conjugates of GLP-2 derivatives, which had been obtained in the previous Examples, a cell line in which a GLP-2 receptor is transformed was used to measure the cell activity in vitro. The cell line is one that has been transformed to express a human GLP-2 receptor in Chinese hamster ovary (CHO)—K1, and thus is suitable for measuring the activity of GLP-2 (DiscoverX, U.S.A.).
In order to measure the activities of the GLP-2 derivatives and the long-acting conjugates thereof, human GLP-2 and Teduglutide (Gattex®, Shire) were subjected to a 3-fold serial dilution from 166.7 nM to 0.0028 nM; the GLP-2 derivatives were subjected to a 3-fold serial dilution from 500 nM to 0.0085 nM; and the long-acting conjugates of GLP-2 derivatives were subjected to a 3-fold serial dilution from 3000 nM to 0.0508 nM. The culture solution was removed from the cultured CHO-K1 cells, in which the human GLP-2 receptor is expressed, and then each of the serially diluted material was added to the cells in an amount of 5 μL, respectively. Thereafter, the buffer (5 μL) containing a cAMP antibody was added and then the cultivation was conducted at room temperature for 15 minutes. Then, a detection mix (10 μL) containing a cell lysis buffer was added thereto to dissolve the cells and reacted at room temperature for 60 minutes. The cell lysates, upon completion of the reaction, were applied to a LANCE cAMP kit (PerkinElmer, U.S.A.) to calculate the EC50 value via accumulated cAMP, and the values were compared with one another.

C57BL/6 mice = assay: Effect of increasing in vivo intestinal weight in normal mice (Example 7); settings: 13 days, Teduglutide 7.5 & 15 nmol/kg/BID, conjugate 4.15, 7.5, 15, 30 nmol/kg/Q2D
Protocol: Five mice were placed in each group and autopsied after 13 days of the administrations. The small intestines were perfused, and the weight of the small intestines and the length of the villi within the small intestines were measured.

[2] = inactivation by DPP IV; Bolette H. et al. 2000; cited from earlier work
[3] = Pharmacokinetics of long-acting conjugates of GLP-2 derivatives in SD rat (Example 5); format: in vivo; settings: normal SD rats, single subcutaneous injection 2.52 mg/kg, serum, ELISA
Protocol: The pharmacokinetics of the long-acting conjugates of GLP-2 derivatives were compared in normal rats.
Pharmacokinetic parameters thereof were calculated using the serum concentrations.

[4] = relative titer from cAMP EC50, CHO-K1 cells expressing human GLP-2 receptor

half-life [1]: 0.6 ± 0.1 h | AUC(0-t) (in vivo): 2.6 ± 0.581 µg·h/mL | Cmax (in vivo): 1680 ± 744 ng/mL | MRT last (in vivo): 1.4 ± 0.1 h | Tmax (in vivo): 0.7 ± 0.3 h | In vitro activity compared to human GLP-2 (%) (relative titer), GLP-2 derivative (human GLP-2 receptor; [4]): 147.5%
Molecule: CC[C@H](C)[C@H](NC(=O)[C@H](Cc1ccccc1)NC(=O)[C@H](CC(=O)O)NC(=O)[C@H](CCCNC(=N)N)NC(=O)[C@H](C)NC(=O)[C@H](C)NC(=O)[C@H](CC(C)C)NC(=O)[C@H](CC(N)=O)NC(=O)[C@H](CC(=O)O)NC(=O)[C@H](CC(C)C)NC(=O)[C@@H](NC(=O)[C@@H](NC(=O)[C@H](CC(N)=O)NC(=O)[C@H](CCSC)NC(=O)[C@H](CCC(=O)O)NC(=O)[C@H](CC(=O)O)NC(=O)[C@H](CO)NC(=O)[C@H](Cc1ccccc1)NC(=O)[C@H](CO)NC(=O)CNC(=O)[C@H](CC(=O)O)NC(=O)CNC(=O)[C@@H](N)Cc1c[nH]cn1)[C@@H](C)O)[C@@H](C)CC)C(=O)N[C@@H](CC(N)=O)C(=O)N[C@@H](Cc1c[nH]c2ccccc12)C(=O)N[C@@H](CC(C)C)C(=O)N[C@H](C(=O)N[C@@H](CCC(N)=O)C(=O)N[C@H](C(=O)N[C@@H](CCCCN)C(=O)N[C@H](C(=O)N[C@H](C(=O)N[C@@H](CC(=O)O)C(=O)O)[C@@H](C)O)[C@@H](C)CC)[C@@H](C)O)[C@@H](C)CC [Teduglutide]
length of the villi within the small intestines (C57BL/6 mice): increase in the length of the villi | weight of the small intestines (C57BL/6 mice): increased in a dose-dependent manner

In vitro activity compared to human GLP-2 (%) (relative titer), GLP-2 derivative (human GLP-2 receptor; [4]): 149.3%
Molecule: CA GLP-2 KC: GLP-2 derivative SEQ ID NO: 2: X1 imidazoacetyldeshistidine, X2 glycine, X30 lysine, X34 cysteine (XGDGSFSDEMNTILDNLAARDFINWLIQTKITDC; X1 imidazoacetyldeshistidine; GLP-2 derivative; (1) Xaa is imidazoacetyldeshistidine)

In vitro activity compared to human GLP-2 (%) (relative titer), GLP-2 derivative (human GLP-2 receptor; [4]): 205.6%
Molecule: CA GLP-2 KK: GLP-2 derivative SEQ ID NO: 3: X1 imidazoacetyldeshistidine, X2 glycine, X30 lysine, X34 lysine (XGDGSFSDEMNTILDNLAARDFINWLIQTKITDK; X1 imidazoacetyldeshistidine; GLP-2 derivative; (1) Xaa is imidazoacetyldeshistidine)

In vitro activity compared to human GLP-2 (%) (relative titer), GLP-2 derivative (human GLP-2 receptor; [4]): 333.2%
Molecule: CA GLP-2 RK: GLP-2 derivative SEQ ID NO: 4: X1 imidazoacetyldeshistidine, X2 glycine, X30 arginine, X34 lysine ([Acetyl(2-(4-imidazolyl))]GDGSFSDEMNTILDNLAARDFINWLIQTRITDK)

Molecule: Glucagon-like peptide-2 [GLP-2]
in vivo half-life [2]: ≤ 7 min

In vitro activity compared to human GLP-2 (%) (relative titer), conjugate of GLP-2 derivative (human GLP-2 receptor; relative titer from cAMP EC50, CHO-K1 cells expressing human GLP-2 receptor, long-acting conjugates): 46.0%
Molecule: Long-acting conjugate of CA GLP-2 RC (10K PEG) derivative: CA-GLP-2 RC covalently linked to the immunoglobulin Fc by 10 kDa PEG at the 34th cysteine ([Acetyl(2-(4-imidazolyl))]GDGSFSDEMNTILDNLAARDFINWLIQTRITDC([PEG 10 kDa-immunoglobulin Fc]); also: Cys34 linked via 10 kDa PEG to immunoglobulin Fc)
AUClast [3]: 1384.9499 ± 186.8176 µg·h/mL | Cmax [3]: 13350.4 ± 3611.4 ng/mL | MRTlast [3]: 88.9 ± 9.4 h | T1/2 [3]: 54.4 ± 6.9 h | Tmax [3]: 26.7 ± 20.1 h | Activation of the GLP-2 receptor / relative potency (in words) (human GLP-2 receptor; CHO-K1 cells expressing human GLP-2 receptor, cAMP): higher activities compared to the long-acting conjugate of GLP-2 derivative (CA GLP-2 KC)
